Experimental data taken from article PMC3025530.

Tests used:
[1] = target: ADAM12-Cat (truncated ADAM12 protein consisting of only the pro and catalytic domains) (human) (UniProt O43184); assay: enzyme inhibition kinetics
[2] = target: ADAM12-S (shorter secreted form of ADAM12), full-length (human) (UniProt O43184); assay: enzyme inhibition kinetics

Substance | Ki [1] [nM] | Ki [2] [nM]
N-TIMP-1[T98L] (domain or fragment) | 11.2 | 21.7
N-TIMP-2^TACE (S2T/A70S/V71L/TIMP-3-ABloop) (domain or fragment) | 0.65 | 
N-TIMP-2^TACE[F34G] (domain or fragment) |  | 18
N-TIMP-2 (N-terminal domain of TIMP-2), wild-type (domain or fragment) | 5.5 | 69.7
N-TIMP-1[V4A] (domain or fragment) |  | 190
N-TIMP-1^TACE (V4S/V69L/T98L/TIMP-3-ABloop) (domain or fragment) | 1.9 | 16.4

Other lines, results leading:

Ki [1] [nM] | Ki [2] [nM] | Substance
247 | > 500 | N-TIMP-1[TIMP-2-ABloop] (domain or fragment)
4.1 | 22 | N-TIMP-2^TACE[L100E] (domain or fragment)
2.5 | 28.1 | N-TIMP-2-ΔABloop (N-TIMP-2 with the AB-loop deleted) (domain or fragment)
 | 66 | N-TIMP-1[TIMP-3-ABloop] (domain or fragment)
 | 122 | N-TIMP-1[V4S] (domain or fragment)
